Source: PMC9516175

system: VIRP1 (Arabidopsis thaliana); test: EMSA

Substance	binding signal (% of WT shifted)
Q-satRNA WT	100
HSVd WT	100
PSTVd WT	100
